Literature values as cited in publication PMC10249258.
pKd: −log10 of the molar value.

Biological target: CD155 (Homo sapiens) (UniProt P15151)
Sequence of UniProt P15151 (P15151 21-343): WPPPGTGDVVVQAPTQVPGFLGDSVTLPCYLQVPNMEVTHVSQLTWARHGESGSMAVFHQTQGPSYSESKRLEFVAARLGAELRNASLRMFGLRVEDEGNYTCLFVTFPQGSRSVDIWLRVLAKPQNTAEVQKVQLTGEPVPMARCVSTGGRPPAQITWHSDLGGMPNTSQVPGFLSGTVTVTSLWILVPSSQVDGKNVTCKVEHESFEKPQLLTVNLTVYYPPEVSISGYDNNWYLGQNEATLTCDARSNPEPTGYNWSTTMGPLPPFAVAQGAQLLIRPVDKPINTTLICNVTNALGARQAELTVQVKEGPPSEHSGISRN

For TIGIT (from UniProt Q495A1), the pKd is given as 8.70.
